Results taken from the nanobody polyreactivity screen of Harvey et al. (2022).

Experiment: yeast display, Sf9 membrane polyspecificity reagent, FACS + sequencing; frameworks hold sequencing errors
Procedure, shortened: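 Nanobodies came from a synthetic yeast display library in Saccharomyces cerevisiae BJ5465, induced with galactose for 36–48 hours and stained for 1 hour at 4 °C with 10% biotinylated, detergent-solubilized Sf9 membrane reagent. Cells were enriched on streptavidin microbeads and then FACS-sorted, with low and high (top ~1%) gates set on anti-HA fluorescence for expression and streptavidin fluorescence for reagent binding. Each polyreactivity label reflects the gate a clone came from. Genes were amplified by colony PCR, sequenced by MiSeq 2 × 250 and filtered by CDR length.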

## QDQLVESGGGLVQAGGSLSLICDASGRTFSTKFMGWYIQAAGKERQLVAAITTSSSRTYYADSVKGRFTISRDNANHTVYLLMNSLKPEDTAVYYCAARIHGSWSFDYWGQGTQVTLSS
  polyreactivity (PSR sort gate): low polyreactivity

## QVQLVESGGVLVQAGGSLRLSCAASGITFGDNAMGWYRQAPGKERELVAAITTSVDSTYYADSVKGRFTISRDNAKNTVYLQMNSLKPEDTAVYYCAVAFVQFTQYDYWGQGTQVTVSS
  polyreactivity (PSR sort gate): low polyreactivity

## QVQLVESGGGLVQAGGSLRLSCAASGRIFPYYAMGWYRQAPGKERELVAAITSGGTTYYADSVKGRFTISRDNAKNTVYLQMNSLKPEDTAVYYCNAVGTPVKISTDRGYWGQGTQVTVSS
  polyreactivity (PSR sort gate): low polyreactivity

## QVQLVESGGGLVQAGGSLRLSCAASGSTFPGYAMGWYRQAPGKERELVAAISASGGSTYYADSVKGRFTISRDNAKNTVYLQMNSLKPEDTAVYYCAKVLSRGASADDYWGQGTQVTVSS
  polyreactivity (PSR sort gate): low polyreactivity

## QVQLVESGGGFVQAGGSLRLSCAASGRTIPYYAMGWYRQARGKEWELVATISTGDSTYYADSVKGRFTISRDNAKNTLYLQMNSLKPEATAVYSCAKDRYTYWSVHAFRRLDYWGKGTQVTVSS
  polyreactivity (PSR sort gate): low polyreactivity

## QVQLVESGGRLVQAGGSLRLSCAASGFSFRGNAMGWYRQAPGKERELVATISRGGNTNYADSVKGRFTISRDNAKNTVYLQMNSLKPEDTAVYYCAAVSYIRSKVAYNYWGQGTQVTVSS
  polyreactivity (PSR sort gate): low polyreactivity

## QVQLVESGGGLVQAGGSLRLSCAASGRTSRFYAMGWYRQAPGKERELVARITTRGGSTYYADSVKGRFTISRDNAKNTVYLQRNSLKPEDTAVYYCNTAFWYSRSMDYWGQGTQVTVSS
  polyreactivity (PSR sort gate): high polyreactivity

## QVQLVESGGGLVQAGGSLRLSCAASGRTFAKYAMAWYRQAPGKERELVAAINSSGGSTYYADSVKGRFTISRDNAKNTVYLQMNSLKPEDTAVYFCAALGIGSYRRYSGYDYWGQGTQVTVSS
  polyreactivity (PSR sort gate): low polyreactivity

## QVQLVESGGGLVQAGGSLRLSCAASGIIFSWYAMGWYRQAPGKERELVATISGGGGSTYYADSVKGRFTISRDNAKNTVYLQMNSLKPEDTAVYYCAADYWNFNWRYKLYRPYDYWGQGTQVTVSS
  polyreactivity (PSR sort gate): high polyreactivity

## QVQLVESGGGLVQAGGSLRLSCAASGRTFLVYAMGWYRQAPGKERELVADITSGGSTDYADSVKGRFTISRDNAKNTVYLQMNSLKPEDTAVYYCATDLWRWYGWFDYWGQGTQVTVSS
  polyreactivity (PSR sort gate): low polyreactivity

## QVQLVESGGGLVQAGGSLRLSCAASGRIFVGYAIGWYRQAPGKERELVAAINRSGSSTYYADSVKGRYTISRDNAKNTFYLQMNSLKPEDTAVYYCNARSGNRYGPRYDYWGQGTQVTVSS
  polyreactivity (PSR sort gate): high polyreactivity

## QVQLVESGGGLVQAGGSLRLSCAASGRTFGYYAMGWYRPAPGKERELVAAISSNTDSTYYADSVKGRFTISRDNAKNTVYLQMNSLKPEDTAVYYCAAEAYSYYPGTYEDDYWGQGTQVTVSS
  polyreactivity (PSR sort gate): low polyreactivity

## QVQLVESGGGLVQAGGSLRLSCAASGSTFSANTMGWYRQAPGKERELVAAISSSGVGTRYADSVKGRFTISRDNAKNTVYLQMNSLKPEDTSVFYCAADYRPTVITRNDYWGQGTQVTVSS
  polyreactivity (PSR sort gate): low polyreactivity

## QVQLVESGGGLVQAGGSLRLSCAASGHTFAYNAMGWYRQAPGKEREFVAAITWSTDNTYYADSVKGRFTISRDNAKNTVYLQMNSLKPEDTAVYYCAKDAAESYRYGYWGQGTQVTVSS
  polyreactivity (PSR sort gate): low polyreactivity

## QDQLVESGGGLVQARVSLRLSCAASGLIFRRYAMGWYRQAPGKEREFVAAITVSGGRTYYADSVKGRFTISRDNAKNTVYLQMNSLKQEDTAVYYCDAHGYGDNRNKYFYWGLGTQVTVSS
  polyreactivity (PSR sort gate): high polyreactivity

## QVQLVESGGGLVQAGGSLRLSCAASGSIFTKYAMGWYRQAPGKERELVAAISKTGGSTYYADSVKGRFTISRDTAKNTVYLQMNSLKPEDTAVYYCNAAGGYSVYKRGRDYWGQGTQVTGSS
  polyreactivity (PSR sort gate): high polyreactivity

## QVQLVESGGGLVQAGGSLRLSCAASGFTFKYYAMGWYRQAPGKERELVAAINRSGGSTHYADSVKGRFTISRDIAKNTVYLQINSLKPEDTAVYYCAATGRRRTYSEYEYWGQGTQVTVSS
  polyreactivity (PSR sort gate): high polyreactivity

## QVQLVESGGGLVQAGGSLRLSCAASGFTFSFYAMGWYRQAPGKERELVAGISKRGGSTYYADSVKGRFTISRDNAKNTVYLQMNSLKPEDTAVYYCAKRSSLYRSLVDYWGQGTQVTVSS
  polyreactivity (PSR sort gate): high polyreactivity

## QVQLEESGGGLVQAGGSLRLSCAASGSTFYPYAMGWYIQAPGTERELVAAISSRDGRTYYADSVKGRFTISRDNAKNTVYLQMNSLTPEDTAVYYCAASSFNNGHRYDYWGQGTQVTVSS
  polyreactivity (PSR sort gate): high polyreactivity

## QVQLVESGGGLVQAGGSLRLSCAAYGSILRSNAMGWYRQAPGKERELVAVISNDDSTYYADSVKGRFTISRDNAKNTVYLQMNSLKPEDTAVYYCNAVYYYFFRWNPIYDSWGQGTQVTVSS
  polyreactivity (PSR sort gate): low polyreactivity

## QVQLVESGGGLVQAGGSLRLSCAASGSTFFGYTMGWYRQAPGKERELVAAITASDGSTYYADSVKGRFTISRDNAKNTVYLQMNSLKPEDTAVYYCNADYRLVRSFRLSSYTYIYDYWGQGTQVTVSS
  polyreactivity (PSR sort gate): low polyreactivity

## QVQLVESGGGLVQAGGSLRLSCAASGFTFYRYTMGCYRQAPGKERELVAAISSGDSTYYADSVKGRFTISRDNAKNTVYLQMNSLKPEDTAVYYCAARQYSRGAIVYYWGQGTQVTVSS
  polyreactivity (PSR sort gate): high polyreactivity

## QVQLVESGGGLVQAGGSLRLSCAASGLTFSLNAMGWYRQAPGKERELVAAIRGSGGSTYYADSVKGRFTISRDNAKNTVYLQMNCLKPEDTAVYYCNADQLVWQRYGVLYEYDYWGQGTQVTVSS
  polyreactivity (PSR sort gate): high polyreactivity

## QVQLVESGGGLVQAGGSLRISCAASGSTFSRNAMGWYRQAPGKERELVAAISRRGDTTYYADSVKGRFTISRDNAKNTVYLQRNSLKPEDTGVYYCAASRYGYPKYGYWGQGTQVTVSS
  polyreactivity (PSR sort gate): high polyreactivity

## QVQLVESGGGLVQAGGSLRLSCAASGRIFWPYAMGWSRQAPGKERELVAAITSGGSTYYADSVKGRFTISRDNAKNTVYLQMNSLKPEDTAVYYCAKRSSGVSVPVAYGGIKRYNSWGQGTQVTVSS
  polyreactivity (PSR sort gate): low polyreactivity

## QVQLVESGGGLVQAGGSLRLSCPASGLIFRRNVMGRYRQAPGKERELVAAISRGGSTYNADSVKGRFTISRDNAKNTVFLQMNSLNPEDTAVYYCAAAYTRYVVRGDFWGQGTQVTVSS
  polyreactivity (PSR sort gate): high polyreactivity

## QVQLVESGGGLVQAGGSLRISCAASGSTFDFYTMGWYRQAHGKEREMVASISWSGRTYYADSVKGRFTISRDNAKNTVYLQMTSLKPEDTAVYYCARRYVVNRDWGDDYWGQGTQVTVSS
  polyreactivity (PSR sort gate): high polyreactivity

## QVQLVESGGGLVQAGGSLRLSCAASGRTFTRYSMGWYRQAPGKERELVATINSSGDRTYYADSVKGRFTISRDNAKNTVYLQMNSLKPEDTAVYYCAKRWSPYLYGYWGKGTQVTVSS
  polyreactivity (PSR sort gate): high polyreactivity

## QVQLVESGGGLVQAGGSLRLSCAASGRIFRYYAMGWYRQATGKERELVATITASSGSTYYADSVKGRFTISRDNAKNTVYLQMNSLKPEDSAVYYCAAGFVYRPGSFIRFDYWGQGTQVTVSS
  polyreactivity (PSR sort gate): high polyreactivity

## QVQLVESGGGLVQAGGSLRLSCAASGSILGANVMGWYRQAPGKERELVASISKSGGNTFYADSVKGRFTISRDNAKNTVYLQLNRLKPEDTAVYYCAKRAHRYSYRYTYDYWGQGTQVTVSS
  polyreactivity (PSR sort gate): low polyreactivity

## QVQLVESGGGLVQAGGSLRLSCAASGRIFAVYAMGWYRQAPGKEREFVAAISYSGGITYYADSVKGRFTISRDNAKNTVYLQMNSLIPEDTAVYYCNAYYYFWGQGTQVTVSS
  polyreactivity (PSR sort gate): low polyreactivity
